Measurements from patent US20200262877A1, “ION CHANNEL-BINDING PEPTIDES AND METHODS OF USE THEREOF” (priority 2017, published 2020).

Tests used:
5HT3a = target: T1, 5HT3a (Homo sapiens, UniProt P46098); assay: Ion channel panel (IonWorks Barracuda): 5HT3a; format: cell-based
T1 construct: host or cells: HEK293 or CHO
T1 sequence (P46098 whole entry, looked up): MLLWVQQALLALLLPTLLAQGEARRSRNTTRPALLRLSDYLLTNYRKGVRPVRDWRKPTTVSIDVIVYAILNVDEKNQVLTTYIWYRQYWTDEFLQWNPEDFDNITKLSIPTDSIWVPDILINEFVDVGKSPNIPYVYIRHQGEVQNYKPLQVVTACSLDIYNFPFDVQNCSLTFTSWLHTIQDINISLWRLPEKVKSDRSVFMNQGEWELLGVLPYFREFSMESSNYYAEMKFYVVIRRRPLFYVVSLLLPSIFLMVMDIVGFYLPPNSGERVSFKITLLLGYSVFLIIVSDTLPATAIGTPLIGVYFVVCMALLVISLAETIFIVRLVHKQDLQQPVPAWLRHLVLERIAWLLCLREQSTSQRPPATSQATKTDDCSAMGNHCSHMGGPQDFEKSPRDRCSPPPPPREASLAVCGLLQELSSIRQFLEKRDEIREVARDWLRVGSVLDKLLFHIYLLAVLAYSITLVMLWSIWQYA
In short: (§1)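 Peptides were tested in duplicate at final 20 μM and 200 nM, with concentration set by amino acid analysis, in HEPES-buffered saline. They were applied for at least 5 min to HEK293 or CHO cells transfected with each channel. Currents were expressed as % inhibition, 1-(Ipeptide/Icontrol)×100, or % activation, Ipeptide/Icontrol×100, against a channel-matched reference compound.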

α3β4 = target: T2, α3β4 (Homo sapiens, UniProt P30926+P32297); assay: Ion channel panel (IonWorks Barracuda): α3β4; format: cell-based; conditions: 100% = no change, <100% = inhibition
T2 construct: host or cells: HEK293 or CHO
In short: as §1

α4β2 = target: T3, α4β2 (Homo sapiens, UniProt P17787+P43681); assay: Ion channel panel (IonWorks Barracuda): α4β2; format: cell-based; conditions: 100% = no change, <100% = inhibition
T3 construct: host or cells: HEK293 or CHO
In short: as §1

Cav2.1 = target: T4, Cav2.1 (Homo sapiens, UniProt O00555); assay: cell-based; conditions: 100% = no change, <100% = inhibition
T4 construct: host or cells: HEK293 or CHO
In short: as §1

Cav2.2 = target: T5, Cav2.2 (Homo sapiens, UniProt Q00975); assay: cell-based; conditions: 100% = no change, <100% = inhibition
T5 construct: host or cells: HEK293 or CHO
In short: as §1

Kv2.1 = target: T6, Kv2.1 (Homo sapiens, UniProt Q14721); assay: cell-based; conditions: 100% = no change, <100% = inhibition
T6 construct: host or cells: HEK293 or CHO
In short: as §1

GABA = assay: Ion channel panel (IonWorks Barracuda): GABA; format: cell-based; conditions: 100% = no change, <100% = inhibition
In short: as §1

Nav1.5 = Nav1.5 (Homo sapiens, UniProt Q14524); assay: in vitro; conditions: 100% = no change; for Activity of Nav1.5 with peptide, expressed as a percentage of the reference compound: peptide at 0.2 μM; for Activity of Nav1.5 with peptide (percentage of the reference compound): peptide at 20 μM
Chain of Nav1.5 (Q14524 whole entry): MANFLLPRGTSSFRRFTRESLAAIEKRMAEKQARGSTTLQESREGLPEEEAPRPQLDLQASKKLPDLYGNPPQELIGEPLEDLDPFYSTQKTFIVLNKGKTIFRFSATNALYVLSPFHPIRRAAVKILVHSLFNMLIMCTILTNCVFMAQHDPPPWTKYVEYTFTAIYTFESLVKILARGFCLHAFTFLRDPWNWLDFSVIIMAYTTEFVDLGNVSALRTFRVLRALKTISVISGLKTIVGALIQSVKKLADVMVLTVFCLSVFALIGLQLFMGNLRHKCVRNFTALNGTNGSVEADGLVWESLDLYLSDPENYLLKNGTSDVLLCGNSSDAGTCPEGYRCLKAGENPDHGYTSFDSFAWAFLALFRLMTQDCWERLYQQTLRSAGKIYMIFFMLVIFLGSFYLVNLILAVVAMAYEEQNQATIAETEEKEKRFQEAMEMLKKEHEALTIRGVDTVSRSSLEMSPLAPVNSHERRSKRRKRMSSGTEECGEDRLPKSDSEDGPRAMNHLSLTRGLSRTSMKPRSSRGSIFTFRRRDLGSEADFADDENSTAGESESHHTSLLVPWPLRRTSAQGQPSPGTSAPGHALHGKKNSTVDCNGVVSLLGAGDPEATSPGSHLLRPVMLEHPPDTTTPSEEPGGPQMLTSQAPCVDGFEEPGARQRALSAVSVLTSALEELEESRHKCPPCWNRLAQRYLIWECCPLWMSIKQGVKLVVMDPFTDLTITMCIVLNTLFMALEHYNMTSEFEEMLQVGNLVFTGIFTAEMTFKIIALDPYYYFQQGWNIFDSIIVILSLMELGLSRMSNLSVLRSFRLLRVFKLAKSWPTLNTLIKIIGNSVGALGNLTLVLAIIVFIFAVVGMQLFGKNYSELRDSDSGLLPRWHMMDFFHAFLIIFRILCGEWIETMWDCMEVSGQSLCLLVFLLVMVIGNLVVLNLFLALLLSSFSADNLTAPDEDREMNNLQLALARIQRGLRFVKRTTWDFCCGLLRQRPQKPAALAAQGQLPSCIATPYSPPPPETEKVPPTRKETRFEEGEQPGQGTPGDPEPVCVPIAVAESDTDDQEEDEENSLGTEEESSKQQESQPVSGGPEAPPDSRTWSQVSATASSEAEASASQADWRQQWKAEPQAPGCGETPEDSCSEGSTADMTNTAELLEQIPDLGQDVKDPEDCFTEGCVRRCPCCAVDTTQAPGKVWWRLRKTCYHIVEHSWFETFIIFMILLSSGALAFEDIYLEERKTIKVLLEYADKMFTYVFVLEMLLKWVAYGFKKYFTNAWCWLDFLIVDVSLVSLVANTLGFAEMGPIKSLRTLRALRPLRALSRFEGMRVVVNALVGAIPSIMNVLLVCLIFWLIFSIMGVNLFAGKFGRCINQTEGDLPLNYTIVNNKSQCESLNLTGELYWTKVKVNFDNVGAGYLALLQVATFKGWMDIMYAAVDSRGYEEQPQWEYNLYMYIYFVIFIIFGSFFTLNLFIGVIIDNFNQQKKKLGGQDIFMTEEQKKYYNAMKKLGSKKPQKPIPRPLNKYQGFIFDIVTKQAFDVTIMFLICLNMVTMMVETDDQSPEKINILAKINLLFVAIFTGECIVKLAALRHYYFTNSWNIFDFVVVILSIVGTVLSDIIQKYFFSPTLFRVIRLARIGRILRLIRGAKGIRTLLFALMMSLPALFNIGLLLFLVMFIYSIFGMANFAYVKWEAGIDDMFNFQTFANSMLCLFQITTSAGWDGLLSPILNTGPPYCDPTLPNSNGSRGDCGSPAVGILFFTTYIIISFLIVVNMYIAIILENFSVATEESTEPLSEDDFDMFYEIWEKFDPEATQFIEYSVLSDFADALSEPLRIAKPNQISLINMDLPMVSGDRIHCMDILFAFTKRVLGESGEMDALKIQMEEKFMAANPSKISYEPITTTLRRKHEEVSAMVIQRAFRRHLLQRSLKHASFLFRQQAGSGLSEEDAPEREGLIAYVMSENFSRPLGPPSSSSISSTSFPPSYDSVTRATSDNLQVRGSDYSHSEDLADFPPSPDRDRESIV
In short: as §1

hERG = hERG (Homo sapiens, UniProt Q12809); assay: in vitro; conditions: 100% = no change, <100% = inhibition
In short: as §1

Kir2.1 = target: T7, Kir2.1 (Homo sapiens, UniProt P63252); assay: Ion channel panel (IonWorks Barracuda): Kir2.1; format: cell-based; conditions: 100% = no change, <100% = inhibition
T7 construct: host or cells: HEK293 or CHO
T7 sequence (P63252 whole entry): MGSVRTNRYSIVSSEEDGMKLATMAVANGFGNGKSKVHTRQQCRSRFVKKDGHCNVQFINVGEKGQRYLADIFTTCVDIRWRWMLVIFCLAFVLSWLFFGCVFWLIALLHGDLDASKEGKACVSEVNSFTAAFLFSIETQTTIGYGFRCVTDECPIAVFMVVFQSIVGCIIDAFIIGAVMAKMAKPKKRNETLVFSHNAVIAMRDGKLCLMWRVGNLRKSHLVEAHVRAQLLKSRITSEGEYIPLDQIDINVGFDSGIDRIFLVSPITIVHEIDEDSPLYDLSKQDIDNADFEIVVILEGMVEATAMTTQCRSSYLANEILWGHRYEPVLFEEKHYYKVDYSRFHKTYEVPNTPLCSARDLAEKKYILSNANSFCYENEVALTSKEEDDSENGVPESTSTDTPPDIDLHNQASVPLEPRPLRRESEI
In short: as §1

Kv1.1 = target: T8, Kv1.1 (Homo sapiens, UniProt Q09470); assay: cell-based; format: cell-based; conditions: 100% = no change, <100% = inhibition
T8 construct: host or cells: HEK293 or CHO
T8 sequence (Q09470 whole entry): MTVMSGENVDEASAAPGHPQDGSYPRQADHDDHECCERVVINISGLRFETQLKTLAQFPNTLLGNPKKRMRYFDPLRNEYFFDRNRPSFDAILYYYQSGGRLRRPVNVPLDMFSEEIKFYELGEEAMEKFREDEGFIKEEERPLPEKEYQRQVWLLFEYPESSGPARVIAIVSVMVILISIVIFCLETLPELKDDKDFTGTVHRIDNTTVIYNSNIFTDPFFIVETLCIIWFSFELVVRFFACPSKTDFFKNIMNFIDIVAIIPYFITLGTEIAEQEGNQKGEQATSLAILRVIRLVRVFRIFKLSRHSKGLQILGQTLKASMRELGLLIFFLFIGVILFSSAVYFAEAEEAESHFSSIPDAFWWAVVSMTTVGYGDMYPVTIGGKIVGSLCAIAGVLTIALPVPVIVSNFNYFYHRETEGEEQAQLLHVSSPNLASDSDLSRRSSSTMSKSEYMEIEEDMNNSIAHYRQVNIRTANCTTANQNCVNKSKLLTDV
In short: as §1

Kv1.2 = target: T9, Kv1.2 (Homo sapiens, UniProt P16389); assay: cell-based; format: cell-based; conditions: 100% = no change, <100% = inhibition
T9 construct: host or cells: HEK293 or CHO
In short: as §1

Kv1.3 = target: T10, Kv1.3 (Homo sapiens, UniProt P22001); assay: cell-based; format: cell-based; conditions: 100% = no change, <100% = inhibition
T10 construct: host or cells: HEK293 or CHO
In short: as §1

Nav1.7 = target: T11, Nav1.7 (Homo sapiens, UniProt Q15858); assay: cell-based; format: cell-based; conditions: 100% = no change; for Activity of Nav1.7 with peptide, expressed as a percentage of the reference compound: peptide at 0.2 μM; for Activity of Nav1.7 with peptide (percentage of the reference compound): peptide at 20 μM
T11 construct: host or cells: HEK293 or CHO
T11 sequence (Q15858 whole entry): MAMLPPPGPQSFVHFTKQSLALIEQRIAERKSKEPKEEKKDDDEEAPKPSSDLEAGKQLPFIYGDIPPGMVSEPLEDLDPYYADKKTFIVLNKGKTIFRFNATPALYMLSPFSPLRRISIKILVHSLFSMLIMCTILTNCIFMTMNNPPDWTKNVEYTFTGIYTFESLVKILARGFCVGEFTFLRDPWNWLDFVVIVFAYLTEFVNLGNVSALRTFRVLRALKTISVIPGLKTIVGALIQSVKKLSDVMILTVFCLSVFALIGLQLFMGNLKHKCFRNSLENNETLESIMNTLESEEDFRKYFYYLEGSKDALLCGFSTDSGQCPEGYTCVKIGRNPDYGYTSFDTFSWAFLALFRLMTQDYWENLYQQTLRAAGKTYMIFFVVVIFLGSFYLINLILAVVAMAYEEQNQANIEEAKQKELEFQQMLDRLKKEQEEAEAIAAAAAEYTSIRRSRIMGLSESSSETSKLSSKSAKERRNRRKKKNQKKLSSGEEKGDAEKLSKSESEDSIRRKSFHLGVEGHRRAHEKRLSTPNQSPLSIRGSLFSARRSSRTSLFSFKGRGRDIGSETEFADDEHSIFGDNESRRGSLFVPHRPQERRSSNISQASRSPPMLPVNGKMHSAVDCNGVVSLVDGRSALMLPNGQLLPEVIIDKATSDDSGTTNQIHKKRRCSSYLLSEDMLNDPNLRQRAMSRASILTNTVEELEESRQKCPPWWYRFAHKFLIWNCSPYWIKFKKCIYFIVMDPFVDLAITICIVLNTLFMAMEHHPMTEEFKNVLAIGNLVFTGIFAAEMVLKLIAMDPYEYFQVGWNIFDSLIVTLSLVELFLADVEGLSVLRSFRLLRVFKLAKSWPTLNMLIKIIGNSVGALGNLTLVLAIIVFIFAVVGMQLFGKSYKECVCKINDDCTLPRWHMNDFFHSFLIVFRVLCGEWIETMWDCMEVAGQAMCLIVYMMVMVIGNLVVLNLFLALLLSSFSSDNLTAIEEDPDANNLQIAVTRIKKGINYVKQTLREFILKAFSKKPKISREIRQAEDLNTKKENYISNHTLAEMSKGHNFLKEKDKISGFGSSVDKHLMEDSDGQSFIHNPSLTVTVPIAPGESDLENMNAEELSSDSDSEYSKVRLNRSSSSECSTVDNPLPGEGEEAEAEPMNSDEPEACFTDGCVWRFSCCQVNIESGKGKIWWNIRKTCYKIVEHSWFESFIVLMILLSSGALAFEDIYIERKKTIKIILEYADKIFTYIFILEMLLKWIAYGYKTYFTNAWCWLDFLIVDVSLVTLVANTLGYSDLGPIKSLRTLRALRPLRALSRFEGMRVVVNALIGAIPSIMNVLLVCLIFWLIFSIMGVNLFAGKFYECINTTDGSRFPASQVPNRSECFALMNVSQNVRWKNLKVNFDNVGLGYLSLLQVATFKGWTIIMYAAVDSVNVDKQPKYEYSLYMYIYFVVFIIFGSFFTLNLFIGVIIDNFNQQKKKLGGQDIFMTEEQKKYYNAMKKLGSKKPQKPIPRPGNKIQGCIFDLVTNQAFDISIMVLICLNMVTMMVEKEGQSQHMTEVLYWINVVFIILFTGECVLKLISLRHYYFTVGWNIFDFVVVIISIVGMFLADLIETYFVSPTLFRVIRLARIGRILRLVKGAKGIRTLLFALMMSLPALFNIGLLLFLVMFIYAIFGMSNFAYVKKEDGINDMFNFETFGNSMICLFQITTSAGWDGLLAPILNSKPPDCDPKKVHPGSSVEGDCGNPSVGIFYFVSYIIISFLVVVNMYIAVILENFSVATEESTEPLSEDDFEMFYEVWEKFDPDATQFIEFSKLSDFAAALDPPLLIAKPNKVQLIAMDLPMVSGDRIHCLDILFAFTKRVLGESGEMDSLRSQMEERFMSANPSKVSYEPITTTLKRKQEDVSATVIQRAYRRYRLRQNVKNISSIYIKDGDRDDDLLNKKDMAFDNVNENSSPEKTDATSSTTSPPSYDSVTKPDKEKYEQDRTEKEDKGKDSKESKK

NR2A = target: T12, NR2A (Homo sapiens, UniProt Q12879); assay: Ion channel panel (IonWorks Barracuda): NR2A; format: cell-based; conditions: 100% = no change, <100% = inhibition
T12 construct: host or cells: HEK293 or CHO
In short: as §1

NR2B = target: T13, NR2B (Homo sapiens, UniProt Q13224); assay: Ion channel panel (IonWorks Barracuda): NR2B; format: cell-based; conditions: 100% = no change, <100% = inhibition
T13 construct: host or cells: HEK293 or CHO
In short: as §1

TRPA1 = target: T14, TRPA1 (Homo sapiens, UniProt O75762); assay: Ion channel panel (IonWorks Barracuda): TRPA1; format: cell-based; conditions: 100% = no change, <100% = inhibition
T14 construct: host or cells: HEK293 or CHO
In short: as §1

TRPV1 = target: T15, TRPV1 (Homo sapiens, UniProt Q8NER1); assay: Ion channel panel (IonWorks Barracuda): TRPV1; format: cell-based; conditions: 100% = no change, <100% = inhibition
T15 construct: host or cells: HEK293 or CHO
In short: as §1

[1] = first of two Nav1.5 columns (probably TP1)
[2] = second of two Nav1.5 columns (probably TP2)
[3] = first of two Nav1.7 columns (probably TP1)
[4] = second of two Nav1.7 columns (probably TP2)

## 39 (GSGVPTDVKCRGSPQCIQPCKDAGMRFGKCMNGKCHCTPK) [compound 39]
5HT3a
  Activity of 5HT3a with peptide (percentage of the reference compound): 55%
  Activity of 5HT3a with peptide, expressed as a percentage of the reference compound: 67%
α3β4; peptide at 0.2 μM
  Activity of a3b4 with peptide, expressed as a percentage of the reference compound: 99%
α3β4; peptide at 20 μM
  Activity of a3b4 with peptide (percentage of the reference compound): 93%
α4β2; peptide at 0.2 μM
  Activity of a4b2 with peptide, expressed as a percentage of the reference compound: 98%
α4β2; peptide at 20 μM
  Activity of a4b2 with peptide (percentage of the reference compound): 91%
Cav2.1; peptide at 0.2 μM
  Activity of Cav2.1 with peptide, expressed as a percentage of the reference compound: 96%
Cav2.1; peptide at 20 μM
  Activity of Cav2.1 with peptide (percentage of the reference compound): 96%
Cav2.2; peptide at 0.2 μM
  Activity of Cav2.2 with peptide, expressed as a percentage of the reference compound: 117%
Cav2.2; peptide at 20 μM
  Activity of Cav2.2 with peptide (percentage of the reference compound): 98%
Kv2.1; peptide at 0.2 μM
  Activity of Kv2.1 with peptide, expressed as a percentage of the reference compound: 118%
Kv2.1; peptide at 20 μM
  Activity of Kv2.1 with peptide (percentage of the reference compound): 102%
GABA; peptide at 0.2 μM
  Activity of GABA with peptide, expressed as a percentage of the reference compound: 111%
GABA; peptide at 20 μM
  Activity of GABA with peptide (percentage of the reference compound): 108%
Nav1.5; [1]
  Activity of Nav1.5 with peptide, expressed as a percentage of the reference compound: 108%
  Activity of Nav1.5 with peptide (percentage of the reference compound): 111%
Nav1.5; [2]
  Activity of Nav1.5 with peptide, expressed as a percentage of the reference compound: 105%
  Activity of Nav1.5 with peptide (percentage of the reference compound): 114%
hERG; peptide at 0.2 μM
  Activity of hERG with peptide, expressed as a percentage of the reference compound: 103%
hERG; peptide at 20 μM
  Activity of hERG with peptide (percentage of the reference compound): 84%
Kir2.1; peptide at 0.2 μM
  Activity of Kir2.1 with peptide, expressed as a percentage of the reference compound: 110%
Kir2.1; peptide at 20 μM
  Activity of Kir2.1 with peptide (percentage of the reference compound): 98%
Kv1.1; peptide at 0.2 μM
  Activity of Kv1.1 with peptide, expressed as a percentage of the reference compound: 37%
Kv1.1; peptide at 20 μM
  Activity of Kv1.1 with peptide (percentage of the reference compound): 21%
Kv1.2; peptide at 0.2 μM
  Activity of Kv1.2 with peptide, expressed as a percentage of the reference compound: 96%
Kv1.2; peptide at 20 μM
  Activity of Kv1.2 with peptide (percentage of the reference compound): 84%
Kv1.3; peptide at 0.2 μM
  Activity of Kv1.3 with peptide, expressed as a percentage of the reference compound: 7%
Kv1.3; peptide at 20 μM
  Activity of Kv1.3 with peptide (percentage of the reference compound): 1%
Nav1.7; [3]
  Activity of Nav1.7 with peptide, expressed as a percentage of the reference compound: 42%
  Activity of Nav1.7 with peptide (percentage of the reference compound): 108%
Nav1.7; [4]
  Activity of Nav1.7 with peptide, expressed as a percentage of the reference compound: 39%
  Activity of Nav1.7 with peptide (percentage of the reference compound): 110%
NR2A; peptide at 0.2 μM
  Activity of NR2A with peptide, expressed as a percentage of the reference compound: 106%
NR2A; peptide at 20 μM
  Activity of NR2A with peptide (percentage of the reference compound): 82%
NR2B; peptide at 0.2 μM
  Activity of NR2B with peptide, expressed as a percentage of the reference compound: 102%
NR2B; peptide at 20 μM
  Activity of NR2B with peptide (percentage of the reference compound): 85%
TRPA1; peptide at 0.2 μM
  Activity of TRPA1 with peptide, expressed as a percentage of the reference compound: 136%
TRPA1; peptide at 20 μM
  Activity of TRPA1 with peptide (percentage of the reference compound): 92%
TRPV1; peptide at 0.2 μM
  Activity of TRPV1 with peptide, expressed as a percentage of the reference compound: 95%
TRPV1; peptide at 20 μM
  Activity of TRPV1 with peptide (percentage of the reference compound): 83%
